# Experimental data from US20110293610A1 (published 2011).
# Positions count from the first letter of the chain named.
# T1: TNF-beta (human, UniProt P01374 35-205)
# T1 construct: also called TNFβ; Tumour Necrosis Factor-beta
# T1 sequence (looked up): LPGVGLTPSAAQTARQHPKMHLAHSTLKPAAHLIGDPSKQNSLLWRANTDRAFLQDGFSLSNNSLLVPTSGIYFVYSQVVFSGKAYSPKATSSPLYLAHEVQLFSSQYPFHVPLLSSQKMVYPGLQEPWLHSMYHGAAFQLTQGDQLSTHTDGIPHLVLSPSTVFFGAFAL
# T2: Fas ligand (human, UniProt P48023 134-281, limits assumed)
# T2 sequence (looked up): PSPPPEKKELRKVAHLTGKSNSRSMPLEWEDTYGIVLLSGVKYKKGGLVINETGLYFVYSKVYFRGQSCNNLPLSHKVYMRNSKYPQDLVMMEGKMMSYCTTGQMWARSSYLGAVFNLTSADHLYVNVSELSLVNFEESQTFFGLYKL
# B1: I075A02 (scFv)
# scFv: QVQLVQSGAEVKKPGSSVKVSCRASGGSFNHAISWVRQAPGRGLEWMGGILPMYGTANYAQKFQGRVTITADKLTNTVYMDLSRLRYEDTAVYYCARELGLSIVGATTGALDMWGRGTLVTVSSGGGGSGGGGSGGGGSAQSVVTQPPSASGTPGQRVTVSCSGGRSNIGSNTVSWYQQLPGTAPKLLIYSNDERPSGVPDRFSGSNSGTSASLAISGLQSEDEADYYCAAWDDSLNGVAFGGGTKLTVLG
# B2: I074B12 (scFv)
# scFv: EVQLVQSGAEVKKPGSSVKVSCRASGGSFNHAISWVRQAPGRGLEWMGGILPMYGTANYAQKFQGRVTITADKLTNTVYMDLSRLRYEDTAVYYCARELGLSIVGATTGALDMWGRGTLVTVSSGGGGSGGGGSGGGGSALSYELTQPPSASGTPGQRVTISCSGSTSNIGSNAVNWYRQLPGTAPKLLVYSNNQVPSGVPDRFSGSKSGTSASLAISGLQSEDEADYYCAAWDDSLSGYVFGTGTQLTVLS
# B3: I016H07 (scFv)
# scFv: GVQLVQSGAEVKKPGASVKVSCKASGYTFTHYAINWLRQAPGQRPEWMGTINTGNGNTKYSQNFQGRLTITRDTSASTVNMELSSLRSEDTAVYYCAGGYHDPLTSYNYNWFDPWGQGTMVTVSSGGGGSGGGGSGGGGSSELTQDPAVSVALGQTVRITCQGDSLRSYYTNWFQQKPGQAPLLVVYAKNKRPSGIPDRFSGSSSGNTASLTITGAQAEDEADYYCHSRDSSGNHVLFGGGTKLTVLG
# B4: I008C03 (scFv)
# scFv: QMQLVRSGGGVVQPGRSLRLSCAASGFTFSSYGMHWVRQAPGKGLEWVSVTYSGGNTNYADSVRGRFTISRDNSKNTLYLQMNSLRAEDTAVYYCAREGSYDILTGYYVGVGRMDVWGKGTLVTVSSGGGGSGGGGSGGGGSSELTQDPAVSVALGQTVRITCQGDSLRSYYTNWFQQKPGQAPLLVVYAKNKRPSGIPDRFSGSSSGNTASLTITGAQAEDEADYYCNSRDSSGNHVVFGGGTKLTVLG
# B5: I037E07 (scFv)
# scFv: QVQLVQSGAEVKKPGASVKVSCKASGYTFTNYGITWVRQAPGQGLEWMGWISAYNGNRNYAQKLQGRVTMTTDTSTSTAYMELRSLRSDDTAVYYCVRDGIDILLVPAALMDVWGRGTMVTVSSGGGGSGGGGSGGGGSQSVLTQPASVSGSPGQSITISCTGTSSDVGGYNYVSWYQQHPGKAPKLMIYEGSKRPSGVSNRFSGSKSGNTASLTISGLQAEDEADYYCSSYTTRSTRVFGGGTKLTVLG
# B6: I037E12 (scFv)
# scFv: B5 scFv with Q1E, R116K, M119L, S193N
# B7: I050A07 (scFv)
# scFv: QVQLVQSGAEVKKPGASMKVSCKASAGRASAYGFAMHPIHWVRQAPGQGLEWMGWINGGTGNTKYSEKFLGRVTMTSDTSATTAYMELSSLRSEDTAVYYCARQDNDPLTGYKLGFDYWGKGTLVTVSSGGGGSGGGGSGGGGSAQSVVTQPPSVSGAPGQRVTISCTGSSTNVGAGYGVHWYQQFPETAPKLLIYGGSNRPSGVPDRFSGSQSGTSASLAITGLQAEDEADYYCQSYDTTLSGYVFGTGTKVTVLG
# B8: I082G02 (scFv)
# scFv: KVQLVESGGGVVQPGRSLRLSCVTSGFTFSSYGMHWVRQAPGKGLEWVAGISYDGAKEYYGDPVKGRFTISRDNTKKTLNLQMNSLRAEDTAVYYCARDGYRTNDALDIWGQGTLATVSSGGGGSGGGGSGGGGSDIQMTQSPSTLSASIGDRVTITCRASEGIYHWLAWYQQKPGKAPKLLIYKASSLASGAPSRFSGSGSGTDFTLTISSLQPDDFATYYCQQYSNYPLTFGGGTKLEIKR
# B9: I079E02 (scFv)
# scFv: QVQLVQSGAEVKKPGSSVKVSCKASGGTFSSYAISWVRQAPGQGLEWMGGIIPIFGTANYAQKFQGRVTITADKSTSTAYMELSSLRSDDTAVYYCARDSGSYYYDAFDIWGKGTMVTVSSGGGGSGGGGSGGGGSDIVMTQSPSTLSASVGDRVTITCRASQGISSWLAWYQQKPGKAPKLLIYAASSLQSGVPSRFSGSGSGTDFTLTISSLQPEDFATYYCQQANSFPLTFGGGTKVEIKR
# B10: I079F11 (scFv)
# scFv: QVQLVQSGGGLVKPGGSLRLSCAASGFTFSSYSMNWVRQAPGKGLEWVAVVSSDGGNKYYADSVKGRFTISRDNSKNTVYLQMNSLRADDTAVYYCAKTGSGFDYWGRGTLVTVSSGGGGSGGGGSGGGGSDIQMTQSPSTLSASIGDRVTITCRASEGIYHWLAWYQQKPGKAPKLLIYKASSLASGAPSRFSGSGSGTDFTLTISSLQPDDFATYYCQQYSNYPLTFGGGTKLEIKR
# B11: I099D03 (scFv)
# scFv: QVQLVQSGAEVKKPGASVRVSCKSSGYTFTNYGISWVRQAPGQGLEWMGWISNNNGKTYYAQKVQGRVTMTTDTSTSTDYMELRGLRSDDTAIYYCARDNGGGTIGFDYWGRGTLVTVSSGGGGSGGGGSGGGGSAQAVLTQPSSVSGAPGQRVTMSCTGSSSNIGAGYDVHWYQQLPGTAPKLLIYDNTNRPSGVPDRFSGSRSGTSASLAITGLQAEDEADYFCQSYDITLSAVFGTGTKVTVLG
# B12: I082H08 (scFv)
# scFv: EVQLVESGGGLVQPGGSLRLSCAASGFTFSDYGMHWVRQRPGKGLEWIAFIGSDGSNKYYGDTVKGRFTISRDNAKNSLYLQMNSLRAEGTAVYYCARDWDMDVWGQGTMVTVSSGGGGSGGGGSGGGGSSHVILTQPRSVSGSPGQSVTISCTGTSSDVGGYHYVSWYQQHPGKAPRLMIYEVTKRPSGVSNRFSGSKSGNTASLTISGVQAEDEADYYCSSYTSASTVIFGGGTKLTVLG
# Molecular target: T3, B Lymphocyte Stimulator, soluble form (human) (human, UniProt Q9Y275 134-285, biotinylated with NHS-biotin where used as biotinylated B Lymphocyte Stimulator)
# T3 construct: Coated on plastic, captured on streptavidin plates, amine-coupled to a CM5 chip or free in solution, depending on the assay; also called BLyS; immobilized B Lymphocyte Stimulator
# Experiment: phage ELISA
row,binding result,Binder
1,binds,B1

# Molecular target: LIGHT (human, UniProt O43557 74-240, limits assumed)
# Sequence (O43557 74-240 limits assumed): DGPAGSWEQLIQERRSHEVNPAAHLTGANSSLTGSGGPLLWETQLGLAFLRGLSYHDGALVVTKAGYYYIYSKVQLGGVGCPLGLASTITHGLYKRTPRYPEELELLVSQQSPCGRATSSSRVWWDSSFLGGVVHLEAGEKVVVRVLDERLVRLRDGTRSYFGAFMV
# Experiment: phage ELISA
row,binding result,Binder
1,no binding,B2
2,no binding,B1

# Molecular target: T4, Bovine serum albumin (bovine, UniProt P02769 25-607)
# T4 construct: also called BSA
# T4 sequence (P02769 25-607 limits assumed): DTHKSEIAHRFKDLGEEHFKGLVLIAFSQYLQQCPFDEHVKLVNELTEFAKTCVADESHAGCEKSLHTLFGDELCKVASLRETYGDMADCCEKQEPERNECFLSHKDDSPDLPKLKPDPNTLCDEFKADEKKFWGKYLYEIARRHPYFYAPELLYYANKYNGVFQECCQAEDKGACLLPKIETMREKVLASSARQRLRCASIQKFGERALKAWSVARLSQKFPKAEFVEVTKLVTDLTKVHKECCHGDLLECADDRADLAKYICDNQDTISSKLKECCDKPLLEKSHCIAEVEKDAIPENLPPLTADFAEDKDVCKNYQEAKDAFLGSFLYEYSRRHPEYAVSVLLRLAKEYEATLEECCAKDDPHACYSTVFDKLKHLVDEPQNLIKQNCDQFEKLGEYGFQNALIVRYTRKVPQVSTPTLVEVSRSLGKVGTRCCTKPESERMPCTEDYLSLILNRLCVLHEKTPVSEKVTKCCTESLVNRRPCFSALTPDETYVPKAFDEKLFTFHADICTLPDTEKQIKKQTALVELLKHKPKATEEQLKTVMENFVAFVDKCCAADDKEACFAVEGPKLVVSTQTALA
# Experiment: phage ELISA
row,binding result,Binder
1,no binding,B2
2,no binding,B1

# Molecular target: T5, membrane-bound B Lymphocyte Stimulator on U937 plasma membrane preparations (human, UniProt Q9Y275 1-285)
# T5 construct: Natural protein in plasma membrane fractions of the human cell line U937 coated on ELISA plates; also called U937 plasma membranes; U937 membranes
# Experiment: phage ELISA
row,binding result,Binder
1,binds,B3
2,binds,B4
3,binds,B5
4,binds,B6

# Molecular target: T6, mouse B Lymphocyte Stimulator (mouse, UniProt Q9WU72 127-309, limits assumed)
# T6 construct: also called murine B Lymphocyte Stimulator; immobilized mouse B Lymphocyte Stimulator
# T6 sequence (Q9WU72 127-309 limits assumed): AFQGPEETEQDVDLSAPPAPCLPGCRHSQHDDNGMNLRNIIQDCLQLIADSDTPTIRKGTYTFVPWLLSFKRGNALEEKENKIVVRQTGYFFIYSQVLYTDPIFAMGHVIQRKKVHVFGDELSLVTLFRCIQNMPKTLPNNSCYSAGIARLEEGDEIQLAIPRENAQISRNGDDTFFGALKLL
# Experiment: phage ELISA
row,binding result,Binder
1,no binding,B3
2,no binding,B4
3,no binding,B5
4,no binding,B6

# Molecular target: T7, TNF-alpha (human, UniProt P01375 77-233)
# T7 construct: also called TNFα; TNF-α
# T7 sequence (P01375 77-233 limits assumed): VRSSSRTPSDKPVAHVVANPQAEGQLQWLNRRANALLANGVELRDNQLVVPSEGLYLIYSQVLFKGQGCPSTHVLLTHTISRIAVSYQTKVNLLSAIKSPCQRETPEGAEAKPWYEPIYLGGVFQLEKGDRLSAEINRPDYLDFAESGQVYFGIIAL
# Experiment: phage ELISA
row,binding result,Binder
1,no binding,B2
2,no binding,B3
3,no binding,B1
4,no binding,B4
5,no binding,B5
6,no binding,B6

# Molecular target: T1, TNF-beta
# Experiment: phage ELISA
row,binding result,Binder
1,no binding,B2
2,no binding,B3
3,no binding,B7
4,no binding,B1
5,no binding,B4
6,no binding,B5
7,no binding,B6

# Molecular target: T2, Fas ligand
# Experiment: phage ELISA
row,binding result,Binder
1,no binding,B3
2,no binding,B7
3,no binding,B4
4,no binding,B5
5,no binding,B6

# Molecular target: T8, TRAIL (human, UniProt P50591 114-281)
# T8 construct: also called TNF-related apoptosis inducing ligand
# T8 sequence (P50591 114-281 limits assumed): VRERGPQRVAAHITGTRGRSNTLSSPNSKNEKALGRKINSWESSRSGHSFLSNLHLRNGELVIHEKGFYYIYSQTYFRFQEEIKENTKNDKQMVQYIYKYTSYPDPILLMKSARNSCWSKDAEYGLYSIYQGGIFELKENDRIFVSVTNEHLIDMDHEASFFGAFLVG
# Experiment: phage ELISA
row,binding result,Binder
1,no binding,B2
2,no binding,B3
3,no binding,B7
4,no binding,B1
5,no binding,B4
6,no binding,B5
7,no binding,B6

# Molecular target: T3, B Lymphocyte Stimulator, soluble form …
# Experiment: phage competition ELISA
row,binding result,Binder
1,binds,B3
2,binds,B4
3,binds,B5
4,binds,B6

# Molecular target: T9, HIS-tagged B Lymphocyte Stimulator (human, UniProt Q9Y275 71-285)
# T9 construct: Expressed in E. coli; also called HIS-B Lymphocyte Stimulator; histidine-tagged B Lymphocyte Stimulator; not shown: histidine tag from the pQE9 vector
# Experiment: BIAcore, purified scFv over low density HIS-BLyS surface
# Experimental: The chip containing the low density HIS-B Lymphocyte Stimulator surface was inserted into the BIAcore. […] The dilution series was then injected sequentially over the blank control (flow cell 1) and low density HIS-B Lymphocyte Stimulator surface (flow cell 2) using the following program: […]
row,Kd,Binder
1,6 nM,B8
2,10 nM,B9
3,5 nM,B10
4,4 nM,B11
5,1 nM,B12

# Molecular target: T3, B Lymphocyte Stimulator, soluble form …
# Experiment: purified scFv, inhibition of biotinylated BLyS binding to IM9 cells
# Experimental: To a separate 96-well plate, titrate test scFvs in MPBS, in triplicate, over a concentration range from 10 μg/ml down to 0.001 μg/ml were added. The final volume of test scFv in each well was 55 μl. […] Plates were then incubated at room temperature for 30 minutes.
# Plates were washed three times in PBST and three times in PBS, tapped dry and 50 μl per well added of streptavidin-Delfia (Wallac) at 1:1000 dilution in the Manufacturer's assay buffer. The plates were then incubated at room temperature for 1 hour and washed six times in Delfia wash solution (Wallac). After tapping the plates dry, 100 μl per well of Delfia enhancement solution (Wallac) was added. The plates were gently tapped to encourage micelle formation, incubated at room temperature for 10 minutes, and fluorescence read on a Wallac 1420 workstation at […].
row,IC50,Binder
1,13 nM,B2
2,17.1 nM,B7
